Consider 19 sequences from the DeepSol protein solubility set.

This data set can be described thus: soluble on expression in E. coli; label from the status in PepcDB or PDB records.
On to “MSLGLPKMEVFQEYYGLPPPPGAIGPFLRLNPGDIVELTKAEAEQNWWEGRNTSTNEIGWFPCNRVKPYVHGPPQDLSVHLWYAGPMERAGAESILANRSDGTFLVRQRVKDAAEFAISIKYNVEVKHIKIMTAEGLYRITEKKAFRGLTELVEFYQQNSLKDCFKSLDTTLQFPFKEPEKRTISRPAVGSTKYFGTAKARYDFCARDRSELSLKEGDIIKILNKKGQQGWWRGEIYGRVGWFPANYVEEDYSEEGHHHHHH”, for which the “soluble on expression in E. coli” value is “soluble”. Next, “MSLGMPSKQREYSNRFFDSTVWNDFAFRDDDVVIASYAKAGTTWVQQIVAQLIFGGAEEIEVSRLSPWFDSVYPDKATKQRLLAEQRHRRFVKTHLPADALVLSERARYLYVGRDARDIVWSLYDHQRAVSADAQARLDAEPSSNGKLRVMPPPTCSVEDYFQTWMRADGAPLWPFWEGVRSWWALRDYDNVLLVHYAALLHDLPAQVRRIAAFLDIPLDAPCCERVLAHCSLDYMRAHAARYVPQGAGFWRDGGRAFFNQGLNGRWRDRLAPAVDAAYRQHVVAELGAECARWLATGDVASEGHHHHHH”: “soluble”; “MSLGPVVHQTSSRFRRRSAQPTWDMSDGCADAIAFRVDSEGIKLHGFGIYLPTEPDRRNFVGEIMMLSPDSSEKWTCLLRVTAEMSSEEKEVGIVRFPEYVLLSPGVTYAVKVNMMKNTKTFCGEGGVTQVHLLNGARLFFSGCSMSQNGTTVQRGQLPYLIYSILDQSNSLQIKQEGHHHHHH”: “soluble”; “MSLGQVEVIDRRQSVFGDDIQLQKRSSSYEIISNGVFLMSTENGRSEREMVTLGAQHMKNAVHSVLIGGLGVGITADEAVHLNDHVQVHVVEIEPSVVEWQYRYLYPFSNQALEHERTAIIISDIQQWLRTNERTYDLICLDTDNGPDWMVHKQNASLYGKIGLELVRERVRVGGAVSFWSASASESFLHELETLFDRVYEHAVSISHTLPPDYVYVACREGHHHHHH”: “not soluble”. For “MSLGRLEKRFSFAFCSYWRPFRRPLRTHHGLWSVREGILIRLTDRETGCQGYGEIAPIPWFGSETLEQALAFCRQLPPLLSEAYILGIPEALPACRFGLEGAWLACRDPDWLNKDLSLLSFCELLGETLPPESYKDSYKDSVPLTRSVYKLKVGRDPMQQELEKLEQWLERLPPGSRLRLDANGGLSLAEAHRWLMVCDRLNQDSPGKIEFLEQPLPPDQHSHLVELSRQYQTPIALDESVACLEQLQAVHRSGWTGILVVKPSLVGSCIALREYLSRHPGLDLVFSSALETAIGAWHGLAWAGSLQAKTASPRAVGWGVGEFFQEGDPLTLTQLSAQERAALMQAVWERYSREGHHHHHH” the value was “soluble”; for “MSLHEMSFAEAIIRNVLRFAEEKQAKTVTSVRVRVGELLLINPEQLQFCFSVASKGTIAEGAKLEISVERADIRCLLCGRELSKDEMLCECGGFAQVKGGKDFILESVVVEVEGHHHHHH”, “soluble”; for “MSLHHLTTYITHDTLISALGFGTQENLEAIRSYHSGITLQTDKRIADTPLLAATLSQERLQQQAEAIGVSGYPRMEQLFILTINELIRQSGQTLEDKTCGLILSTTKGNIDLLARHTEHPDEAVFLWKMAENIAGYFHAEERVHVISNACISGVSALIAGKRMIENGIYRRVIVAGGDLLSHFITSGFGSFRSLSSRPCRPYDSSRDGLNLGEACGAVLLSSEGTEEHVILSGGAVSNDANHISGPSRTGDGLYFAIRQAMQEAGTAPQDISFVNAHGTATVYNDEMESKALTLAHLEQVPVHSLKPYFGHTLGASGIIESIVCMHELKQGILFGTPGYETPGVPMPIPVYATHRSIPMKHCVKTASGFGGCNAAIVLSLPEYTPFKDEDNTLPEIRCTREVRIENSSVFINNELIFHSEEPDFGTFIRDTYKKTGGNNLKFYKMDDLCKLGYVAAEYLLEGKTFAPLEMGMLLANAASSLHTDIRHQQLIDREGDQAASPAVFVYTLPNVVSGEICIRHKIQGENTFFITEAYQPEKLERYARIVMQKGKLNYCIIGWCELWKNTYKAVFKLIEKEGHHHHHH”, “soluble”. Turning to “MSLHLNDQWVLCAPTDNFENKKEIFFTPQGAFGTGLHETTQDILKFIVEEDFEGKSLLDLGTGSGILSIAAGVKGASKIVAVDIRDVEDEVLLNASLNELENIEVVVGNVLHEEYKLNEKFDWIFINIGGEETAMFMDFIEEHIEKTGKLLVSGLVEWSFDWVKEKVENKGFKLNKKFQTNEWCTAIFSKEGHHHHHH”, the “soluble on expression in E. coli” value is listed as “soluble”. For “MSLHQILVVDDDAVSQQFLVMVLQRLGYANVVVASDGLDALIQLDAGDRRFDVIFCDLDMPRMDGIEFVRHLGERAFQGKLLISSGFDERVLESVAELARMYDLWLAGVLPKPINHQALQRLINQAPPASRHPTHAVAPPTEDELRAAIGKGEIRPFLQPQVLLADGRIRSAEVLARWQHPRLGLIGPQQFIQLAEHSSLITELTLQLLKQAAASMDRLPSETPMEMSLNLSVASLNEIALVSQFERILNDCGFPFSRLTVEVTETGLMANPTRALELLTRLRLKGARLAIDDFGTGFASMDRLSRIPFTELKIDKSFVIDAARNPTNLSIVRASAELGRQLGLVVVAEGVATESEWRLCQQLDVEIVQGSFISPPVDAESFRRWLLKHRGEGHHHHHH”, the “soluble on expression in E. coli” value is on record as “soluble”.

As to “MSLHRLASLPGGWTPAMEGVIIVEQTPAPLIFLTAADTDIQAIARVWPRLPGDFPDLRVCNLLNLQQSFSLDDYGDRVLGQAEVIVVRLLGGKSYWPYGLEVLGELTVTKPDLKLFVLPGDDRPDPSLMNQSTVPLTAVHCLWQYFAEGGTDNIRHGLMWLGDYGFGRNYRPPAPQMVPKVGIYRPEGHHHHHH”, the “soluble on expression in E. coli” value is “soluble”.

Turning to “MSLHTSHVIPAPRIDVWEWHTRPGAVFRLTPPFLPLRPLEQATSLAKGTTVFALPAGLRWEARHDLSGYIQHHRFTDVCINAPVKSLASWRHIHDFTDHPSGTLITDTVHTRAPRTTLSPAFAYRQHQLINDIQAQQRFYELTRSNPTESTPLTIGLTGSRGLVGRALTAQLTTLGHTVVQLVRGESKPHQRHWDPAHPAPNLLEGLDALIHLAGEPILGRFNDAHKADIRDSRIEPTRQLSQLVQKSSTCRTMVSASAIGYYGHARGDEILDEGSTQGDDFLASVCEEWEAASRTDATSNKRIVNIRTGVVMSGRGGMLPVLKAVFSVGLGGPFRGSNPWMSWIAIDDLCDIYIRAVLDPKLSGAINAVAPNPIKNQDFVDALAKELKRPAKMTISSLGPAILLGQQGAKELALADQRVQPRVLNNLDHHFRYVDIRSCLAHELGGENLLDI”, the “soluble on expression in E. coli” value is “not soluble”. For “MSLIDAEHIEIALDKRYLRESYLPERALDDILDGQVIIETQGEQVGQVNGLTVIEVTGHPMPYGEPARISCVIHFGDGDIADVERKVELGGNLHAKGMMIMQAFVSSALNLDGSLPFSASIVFEQSYSEVDGDSASLAELCSLVSALSEYPIDQQIAVTGAVDQFGRVQAVGGLNEKIEGFYRVCCHQGLTGEQGVILPSSNLKHLALHKSVVESIKNGEFNIWPVSTVDEAIPLLMGKPFRGEDEDSVIAKIAERIDNFEKLVEGHHHHHH” the value was “soluble”.

Consider “MSLIDWTRPLADRMRPRLLTEFVGQSHLLDAGKPLREVIEAGRPHSMVFWGPPGTGKTTLARLIAEATEAEFLALSAVMAGVKEIRQASATGQANRARGRQTILFVDEVHRFNKAQQDAFLPFIEDGTVVFIGATTENPSFELNNALLSRLRTYVLRPLGEAALARIIDCALEDSERGLGTKQLALSEQARSLLIQAADGDARSALSLLEVAADLSAAEARIDIDLIRAAAAGGRARFDKRGEAFYDEISALHKAVRGSAPDAALYWLCRMLAGGCDPLYLARRLLRMASEDIGNADPRGLQVALNAWQAQERLGSPEGELAIAQAVVYLASVPKSDAVYRAYRLAAEDVRSHGSLEVPLALRNAPTRLLRELGYGRGYRYAHDEPEGYAAGAEYFPAELIGTRYYHPADRGLERQIGERLRRLRELDRATEGHHHHHH”, for which the “soluble on expression in E. coli” value was “not soluble”. For “MSLIHAFIKKGCFQDSVSLMIISRKLSESENVDDVSVMMGTPANKALLDTTGFWHDDFNNATPNDICVAIRSEAADAGIAQAIMQQLEEALKQLAQGSGSSQALTQVRRWDSACQKLPDANLALISVAGEYAAELANQALDRNLNVMMFSDNVTLEDEIQLKTRAREKGLLVMGPDCGTSMIAGTPLAFANVMPEGNIGVIGASGTGIQELCSQIALAGEGITHAIGLGGRDLSREVGGISALTALEMLSADEKSEVLAFVSKPPAEAVRLKIVNAMKATGKPTVALFLGYTPAVARDENVWFASSLDEAARLACLLSRVTARRNAIAPVSSGFICGLYTGGTLAAEAAGLLAGHLGVEADDTHQHGMMLDADSHQIIDLGDDFYTVGRPHPMIDPTLRNQLIADLGAKPQVRVLLLDVVIGFGATADPAASLVSAWQKACAARLDNQPLYAIATVTGTERDPQCRSQQIATLEDAGIAVVSSLPEATLLAAALIHPLSPAAQQHTPSLLENVAVINIGLRSFALELQSASKPVVHYQWSPVAGGNKKLARLLERLQEGHHHHHH” the value was “soluble”; for “MSLIQNVYINGLSGVSAQPTFDESYVDGNVQTETIPYRKVLDPDYKQYLNPTASRRFSRLIKMSLVAAQKSIAMADGVMPEAIITGTGLGCLEDTEKFLKALIENNESMLSPTAFIQSTHNTISGQIAMMITCYYPNYTYSNRYFTFESSLLDAVLMLLDKSCKHVLVNAADEIIPAVHTIVKRMHLWDRAEAIAHKNALAVTAGEGVVSMMLSSEKKESSVAAVKALELIYILPKDTSIEAHFKKFLAEASLTAADIDVLVLGMNGDAASDVYYEPVRNLFSTSTHVVYKHHFGESFTASSFAYWLGAQLIRHKKIDASVILSDKGHRAPKRVLLYNQSHNKYHSFCLLTDVDEGHHHHHH”, “not soluble”; for “MSLIRKFSSKDLDAVEEIEREAFKTPYPTSLILGFWSMYPNCFYVAEIDGRVVGYILGSMDWGNGHIISLAVKKECRGLGIGTALLKTLENYYFNIANCNYIVLEVRVSNVLARRFYYRMGYRDRKLLPKYYEDGEDAILMIKKKPNAKGPLIITLWEGHHHHHH”, “soluble”. “MSLITVANRIFVNPERAAAFEERFRRRPRRVDRQPGFIADHVLRPTQAGDPYVVLSFWDSRAAFEAWRTSPGFKDGHKEGHHHHHH”: the “soluble on expression in E. coli” value is “not soluble”. Regarding “MSLKAFLPLLFSFFFIISCQQHKEATISPIDEEDELQEEADSLPRATAIFWLDKYHMKELKKDDVLTFRTAKAKVVIRNDGTIDLLSFVEQQPGNAQRYIRYRLKDFKVKKILMDNGYINPGEQYVQLRYIPALARRVKEGHHHHHH”, the “soluble on expression in E. coli” value was “soluble”. With “MSLKAINFINWKYIGLTGCLVASLLTACGDDETGPEVVTPLEPKLEIVNEASTFSFSSAGNSAQVLTFNANQDWHIVLDDSEGVDNSWVVLFEREGTAGEGNKVWVAAAENVEPDARRANFSLVSGGFKYDFVIYQAQKDAVVITDPKAYENLDAGEHIISVEFGINTGEYKTSFLYSGDTGWIMPTDERPAGEPETRAMENHTLYFKVLPNQKFDIRRGTIEISSKDNDNVKATMNIFQTGLPKPVITVDNKEMFTNLASKEDSILLKYKATNTNGPRDLTIDIDKNDQDWISFKPAIDAKGDSTFLVSVKENTGGERTATIALCAAADKKVREEFIVTQAQASDVELVITNKNDFRTSLDKLGSAATVKYSVQSTLTDPKNEILVDIVYPEESGYTAENGWLHMANNSMPERVIFTYDVNKVLRERQATVYIYRKGYENKKDYMVIRQAAATQIEIPAPGGLTNVLQSLIDDEIYKDWESITSLELKGRLNDTDLNLLKNMMTAGKGYNLKTLDMTEVENETLKNGVFNGCNLLENISFPTGLQYVPREACRNCTKLRTVVVNEGPTYIGRHAFGNSVVNEAWFPSTMTYVYGYIFDNVTALKTLHLKSLPFQCKEVARSDADEGATQPTTWCTVFKTWPSTVYVPMEYLEYYKNPDPKHVVSMHFQDLLNTLTSESEEWTKGPKVQQPYLKSNSALKSNFTWGSSATTIMGESEGHHHHHH”, the “soluble on expression in E. coli” value is given as “soluble”.
